# Data as given in patent US20210130436A1 (published 2021).
# Positions count from the first letter of the chain named. Numbers in names are those of the source.
# B1: variant CD80 IgV-Fc E35D/D46V/M47L/L85Q (Fc fusion, not shown: small tags and cut ends; a dimerising Fc or GST)
# chain: VIHVTKEVKEVATLSCGHNVSVEELAQTRIYWQKDKKMVLTMMSGVLNIWPEYKNRTIFDITNNLSIVILALRPSDEGTYECVVQKYEKDAFKREHLAEVTLSVKAD
# B2: variant CD80 IgV-Fc E35D/N48K (Fc fusion, not shown: small tags and cut ends; a dimerising Fc or GST)
# chain: B1 chain with V46D, L47M, N48K, Q85L
# B3: variant CD80 IgV-Fc M47V/V68M (Fc fusion, not shown: small tags and cut ends; a dimerising Fc or GST)
# chain: B1 chain with D35E, V46D, L47V, V68M, Q85L
# B4: variant CD80 IgV-Fc N48K (Fc fusion, not shown: small tags and cut ends; a dimerising Fc or GST)
# chain: B1 chain with D35E, V46D, L47M, N48K, Q85L
# B5: variant CD80 IgV-Fc M47V/K89N (Fc fusion, not shown: small tags and cut ends; a dimerising Fc or GST)
# chain: B1 chain with D35E, V46D, L47V, Q85L, K89N
# B6: variant CD80 IgV-Fc V68M (Fc fusion, not shown: small tags and cut ends; a dimerising Fc or GST)
# chain: B1 chain with D35E, V46D, L47M, V68M, Q85L
# B7: variant CD80 IgV-Fc E35D/V68M/L85Q (Fc fusion, not shown: small tags and cut ends; a dimerising Fc or GST)
# chain: B1 chain with V46D, L47M, V68M
# B8: variant CD80 IgV-Fc E35D/D46V/M47L/V68M/L85Q (Fc fusion, not shown: small tags and cut ends; a dimerising Fc or GST)
# chain: B1 chain with V68M
# B9: variant CD80 IgV-Fc E35D/M47L/V68M (Fc fusion, not shown: small tags and cut ends; a dimerising Fc or GST)
# chain: B1 chain with V46D, V68M, Q85L
# B10: variant CD80 IgV-Fc E35D/K89N (Fc fusion, not shown: small tags and cut ends; a dimerising Fc or GST)
# chain: B1 chain with V46D, L47M, Q85L, K89N
# B11: variant CD80 IgV-Fc M47V (Fc fusion, not shown: small tags and cut ends; a dimerising Fc or GST)
# chain: B1 chain with D35E, V46D, L47V, Q85L
# B12: variant CD80 IgV-Fc M47V/N48K (Fc fusion, not shown: small tags and cut ends; a dimerising Fc or GST)
# chain: B1 chain with D35E, V46D, L47V, N48K, Q85L
# B13: variant CD80 IgV-Fc V68M/L85Q (Fc fusion, not shown: small tags and cut ends; a dimerising Fc or GST)
# chain: B1 chain with D35E, V46D, L47M, V68M
# B14: variant CD80 IgV-Fc K89N (Fc fusion, not shown: small tags and cut ends; a dimerising Fc or GST)
# chain: B1 chain with D35E, V46D, L47M, Q85L, K89N
# B15: variant CD80 IgV-Fc E35D/M47L/L85Q (Fc fusion, not shown: small tags and cut ends; a dimerising Fc or GST)
# chain: B1 chain with V46D
# B16: variant CD80 IgV-Fc E35D/M47L/V68M/L85Q (Fc fusion, not shown: small tags and cut ends; a dimerising Fc or GST)
# chain: B1 chain with V46D, V68M
# B17: variant CD80 IgV-Fc E35D/M47V (Fc fusion, not shown: small tags and cut ends; a dimerising Fc or GST)
# chain: B1 chain with V46D, L47V, Q85L
# B18: variant CD80 IgV-Fc M47L/V68M/L85Q (Fc fusion, not shown: small tags and cut ends; a dimerising Fc or GST)
# chain: B1 chain with D35E, V46D, V68M
# B19: variant CD80 IgV-Fc E35D/M47L (Fc fusion, not shown: small tags and cut ends; a dimerising Fc or GST)
# chain: B1 chain with V46D, Q85L
# Target: T1, human PD-L1, full-length, on CHO cells (human, UniProt Q9NZQ7 19-290)
# T1 construct: also called huPD-L1; CD274
# T1 sequence (Q9NZQ7 19-290): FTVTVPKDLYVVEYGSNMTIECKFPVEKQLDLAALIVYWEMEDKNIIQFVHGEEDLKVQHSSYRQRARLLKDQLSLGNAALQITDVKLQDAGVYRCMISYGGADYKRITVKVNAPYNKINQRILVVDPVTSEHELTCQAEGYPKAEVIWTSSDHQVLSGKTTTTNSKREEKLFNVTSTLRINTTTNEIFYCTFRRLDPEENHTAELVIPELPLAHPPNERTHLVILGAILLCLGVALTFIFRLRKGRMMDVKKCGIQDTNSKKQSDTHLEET
# Experiment: flow cytometry, CHO/PD-L1 cells; MFI relative to WT CD80 ECD-Fc
row,Fold change to WT CD80,Binder
1,58.8 fold,B1
2,51.1 fold,B2
3,33.5 fold,B3
4,3.8 fold,B4
5,4.9 fold,B5
6,0.9 fold,B6
7,46.6 fold,B7
8,222 fold,B8
9,218 fold,B9
10,5.9 fold,B10
11,18.1 fold,B11
12,24.1 fold,B12
13,2.7 fold,B13
14,0.4 fold,B14
15,47.6 fold,B15
16,120 fold,B16
17,53.1 fold,B17
18,31.6 fold,B18
19,58.8 fold,B19

# Target: T2, CD28 endogenously expressed on Jurkat/IL2 reporter cells (human, UniProt P10747 19-220)
# T2 construct: also called Jurkats (CD28)
# Experiment: flow cytometry, Jurkat cells (CD28)
row,MFI at 33.3 nM,Binder
1,268 MFI,B1
2,194 MFI,B2
3,328 MFI,B3
4,60.1 MFI,B4
5,197 MFI,B5
6,37.9 MFI,B6
7,76.2 MFI,B7
8,464 MFI,B8
9,1240 MFI,B9
10,236 MFI,B10
11,68.7 MFI,B11
12,413 MFI,B12
13,91.7 MFI,B13
14,56.3 MFI,B14
15,46.3 MFI,B15
16,159 MFI,B16
17,501 MFI,B17
18,60.9 MFI,B18
19,411 MFI,B19

# Target: T1, human PD-L1, full-length, on CHO cells
# Experiment: flow cytometry, CHO cells stably expressing PD-L1
row,MFI at 33.3 nM,Binder
1,7520 MFI,B1
2,6540 MFI,B2
3,4290 MFI,B3
4,481 MFI,B4
5,622 MFI,B5
6,118 MFI,B6
7,5970 MFI,B7
8,28400 MFI,B8
9,27900 MFI,B9
10,757 MFI,B10
11,2320 MFI,B11
12,3080 MFI,B12
13,347 MFI,B13
14,52.8 MFI,B14
15,6100 MFI,B15
16,15300 MFI,B16
17,6800 MFI,B17
18,4040 MFI,B18
19,7530 MFI,B19

# Target: T3, human CTLA4 (CTLA-4), full-length, on CHO cells (human, UniProt P16410 36-223)
# T3 construct: also called huCTLA4
# T3 sequence (P16410 36-223): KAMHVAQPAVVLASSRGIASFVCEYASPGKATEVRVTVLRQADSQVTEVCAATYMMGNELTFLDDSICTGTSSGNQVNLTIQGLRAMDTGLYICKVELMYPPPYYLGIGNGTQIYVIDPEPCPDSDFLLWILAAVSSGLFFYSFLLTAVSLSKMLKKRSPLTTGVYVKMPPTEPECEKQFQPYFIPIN
# Experiment: flow cytometry, CHO cells stably expressing CTLA4
row,MFI at 33.3 nM,Binder
1,38200 MFI,B1
2,41300 MFI,B2
3,7280 MFI,B3
4,4950 MFI,B4
5,32400 MFI,B5
6,568 MFI,B6
7,42800 MFI,B7
8,26200 MFI,B8
9,28600 MFI,B9
10,21800 MFI,B10
11,33300 MFI,B11
12,44600 MFI,B12
13,3290 MFI,B13
14,944 MFI,B14
15,12900 MFI,B15
16,28100 MFI,B16
17,44600 MFI,B17
18,11100 MFI,B18
19,48000 MFI,B19

# Target: T1, human PD-L1, full-length, on CHO cells
# Experiment: flow cytometry; PD-L1 MFI over CD28 MFI
row,Ratio of PDL1:CD28,Binder
1,28.1 ratio,B1
2,33.7 ratio,B2
3,13.1 ratio,B3
4,8 ratio,B4
5,3.2 ratio,B5
6,3.1 ratio,B6
7,78.4 ratio,B7
8,61.2 ratio,B8
9,22.4 ratio,B9
10,3.2 ratio,B10
11,33.7 ratio,B11
12,7.5 ratio,B12
13,3.8 ratio,B13
14,0.9 ratio,B14
15,132 ratio,B15
16,96.3 ratio,B16
17,13.6 ratio,B17
18,66.3 ratio,B18
19,18.3 ratio,B19

# Target: T2, CD28 endogenously expressed on …
# Experiment: flow cytometry, Jurkat cells (CD28); MFI relative to WT CD80 ECD-Fc
row,Fold change to WT CD80,Binder
1,0.4 fold,B1
2,0.3 fold,B2
3,0.5 fold,B3
4,0.1 fold,B4
5,0.3 fold,B5
6,0.1 fold,B6
7,0.1 fold,B7
8,0.7 fold,B8
9,1.8 fold,B9
10,0.3 fold,B10
11,0.1 fold,B11
12,0.6 fold,B12
13,0.1 fold,B13
14,0.1 fold,B14
15,0.1 fold,B15
16,0.2 fold,B16
17,0.7 fold,B17
18,0.1 fold,B18
19,0.6 fold,B19

# Target: T3, human CTLA4 (CTLA-4), full-length, on …
# Experiment: flow cytometry, CHO/CTLA4 cells; MFI relative to WT CD80 ECD-Fc
row,Fold change to WT CD80,Binder
1,0.9 fold,B1
2,1 fold,B2
3,0.2 fold,B3
4,0.1 fold,B4
5,0.8 fold,B5
6,0 fold,B6
7,1.1 fold,B7
8,0.6 fold,B8
9,0.7 fold,B9
10,0.5 fold,B10
11,0.8 fold,B11
12,1.1 fold,B12
13,0.1 fold,B13
14,0 fold,B14
15,0.3 fold,B15
16,0.7 fold,B16
17,1.1 fold,B17
18,0.3 fold,B18
19,1.2 fold,B19
